Paper PMC7609443, “Complement C1q Interacts With LRP1 Clusters II and IV Through a Site Close but Different From the Binding Site of Its C1r and C1s-Associated Proteases” (Frontiers in Immunology, 2020)

B1: Receptor-associated protein (RAP) (natural protein, UniProt P30533 35-357, looked up)
chain: YSREKNQPKPSPKRESGEEFRMEKLNQLWEKAQRLHLPPVRLAELHADLKIQERDELAWKKLKLDGLDEDGEKEARLIRNLNVILAKYGLDGKKDARQVTSNSLSGTQEDGLDDPRLEKLWHKAKTSGKFSGEELDKLWREFLHHKEKVHEYNVLLETLSRTEEIHENVISPSDLSDIKGSVLHSRHTELKEKLRSINQGLDRLRRVSHQGYSTEAEFEEPRVIDLWDLAQSANLTDKELEAFREELKHFEAKIEKHNHYQKQLEIAHEKLRHAESVGDGERVSRSREKHALLEGRTKELGYTVKKHLQDLSGRISRARHNEL
notes: receptor-associated protein (RAP), chaperone of 39 kDa of LRP1; Y'; The printed 'Y' may be the first residue of mature RAP (surmise)
B2: Soluble LRP1 cluster II (domain or fragment, human)
chain: AIDAGSPQCQPGEFACANSRCIQERWKCDGDNDCLDNSDEAPALCHQHTCPSDRFKCENNRCIPNRWLCDGDNDCGNSEDESNATCSARTCPPNQFSCASGRCIPISWTCDLDDDCGDRSDESASCAYPTCFPLTQFTCNNGRCININWRCDNDNDCGDNSDEAGCSHSCSSTQFKCNSGRCIPEHWTCDGDNDCGDYSDETHANCTNQATRPPGGCHTDEFQCRLDGLCIPLRWRCDGDTDCMDSSDEKSCEGVTHVCDPSVKFGCKDSARCISKAWVCDGDNDCEDNSDEENCESLACRPPSHPCANNTSVCLPPDKLCDGNDDCGDGSDEGELC
notes: four amino acids naturally located in full-length LRP1 after the cleavage site of the signal peptide; numbers count on: the mature protein; introduced by the cloning process (BamHI site); LRP1 cluster II, 8 CR modules (CR3-10), human; Secreted with the LRP1 signal peptide, which is cleaved; Glycosylated: 50,372 Da by MALDI; also called CR3-10
B3: Soluble LRP1 cluster IV (domain or fragment)
chain: not shown
notes: four amino acids naturally located in full-length LRP1 after the cleavage site of the signal peptide; numbers count on: the mature protein; introduced by the cloning process (BamHI site); LRP1 cluster IV, 11 CR modules (CR21-31), human; Secreted with the LRP1 signal peptide, which is cleaved; Glycosylated: 62,528 Da by MALDI; also called CR21-31

Assays:
Details in all cases: both partners purified
Soluble LRP1 cluster III = molecular target: T1, Soluble LRP1 cluster III (human, UniProt Q07954 2522-2940); test: SPR; BIAcore 3000; full-length (ecto) LRP1 (7,400 RU) or clusters II (2,967 RU), III (3,460 RU), IV (3,396 RU) immobilised on CM5 by amine coupling; RAP 0.25-16 nM injected in 50 mM TEA, 150 mM NaCl, 1 mM CaCl2, 0.005% P20, pH 7.4, 20 µl/min; global fit, 1:1 Langmuir
T1 construct: four amino acids naturally located in full-length LRP1 after the cleavage site of the signal peptide; numbers count on: the mature protein; introduced by the cloning process (BamHI site); LRP1 cluster III, 10 CR modules (CR11-20), human; Secreted with the LRP1 signal peptide, which is cleaved; Glycosylated: 63,734 Da by MALDI; also called CR11-20
T1 sequence (Q07954 other isoform, or with tags, fused parts or gaps): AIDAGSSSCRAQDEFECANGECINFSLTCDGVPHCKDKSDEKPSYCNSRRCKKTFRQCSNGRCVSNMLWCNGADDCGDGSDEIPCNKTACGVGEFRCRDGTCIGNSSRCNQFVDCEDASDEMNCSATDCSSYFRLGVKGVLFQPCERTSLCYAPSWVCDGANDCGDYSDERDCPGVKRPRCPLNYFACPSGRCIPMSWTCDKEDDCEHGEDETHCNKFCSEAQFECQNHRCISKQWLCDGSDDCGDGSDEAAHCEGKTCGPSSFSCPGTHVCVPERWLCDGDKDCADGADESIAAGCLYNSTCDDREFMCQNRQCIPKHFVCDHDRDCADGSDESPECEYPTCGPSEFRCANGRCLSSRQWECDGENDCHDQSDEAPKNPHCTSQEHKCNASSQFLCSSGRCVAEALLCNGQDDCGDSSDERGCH

Soluble LRP1 cluster IV = molecular target: B3; test: as above
Soluble LRP1 cluster IV, sequence (Q07954 other isoform, or with tags, fused parts or gaps): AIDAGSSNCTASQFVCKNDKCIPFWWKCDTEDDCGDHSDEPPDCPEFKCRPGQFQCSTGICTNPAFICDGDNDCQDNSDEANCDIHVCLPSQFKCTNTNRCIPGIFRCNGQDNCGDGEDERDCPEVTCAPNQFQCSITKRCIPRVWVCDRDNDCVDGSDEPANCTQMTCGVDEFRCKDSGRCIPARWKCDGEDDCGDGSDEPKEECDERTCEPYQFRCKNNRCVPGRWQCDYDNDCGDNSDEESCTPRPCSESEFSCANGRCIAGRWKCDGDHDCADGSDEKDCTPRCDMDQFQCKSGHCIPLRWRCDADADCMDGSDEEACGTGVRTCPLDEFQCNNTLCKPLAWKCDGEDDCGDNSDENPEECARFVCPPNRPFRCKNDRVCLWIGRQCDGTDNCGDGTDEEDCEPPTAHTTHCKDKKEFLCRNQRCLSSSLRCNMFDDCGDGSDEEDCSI

Soluble LRP1 cluster II = molecular target: B2; test: as above
[1] = molecular target: T2, Full-length LRP1 (soluble LRP1) (human, UniProt Q07954 20-4419); test: as above
T2 construct: LDL receptor-related protein 1 (LRP1, CD91), soluble form called ecto-LRP1; also called ecto-LRP1; ecto LRP1; source: produced and purified according to De Nardis et al. (15)

[2] = molecular target: T3, C1q purified from human serum (human, UniProt P02745 23-245; P02746 28-253; P02747 29-245); test: SPR; T200; cluster II (1,230 RU) or cluster IV (1,270 RU) immobilised on CM5; serum C1q, CLR or GR injected in 50 mM Tris, 150 mM NaCl, 2 mM CaCl2, 0.05% P20, pH 7.4, 30 µl/min; KD from C1q 0.125-8 nM by steady state analysis; for competition C1q pre-incubated 15 min at 25°C with C1r2s2
T3 construct: complement C1q, A chain, human, from serum; complement C1q, B chain, human, from serum; complement C1q, C chain, human, from serum; also called serum C1q; sC1q; source: purified from human serum; copies: 6 + 6 + 6
T3 sequence (P02745 23-245, chain 1 of 3): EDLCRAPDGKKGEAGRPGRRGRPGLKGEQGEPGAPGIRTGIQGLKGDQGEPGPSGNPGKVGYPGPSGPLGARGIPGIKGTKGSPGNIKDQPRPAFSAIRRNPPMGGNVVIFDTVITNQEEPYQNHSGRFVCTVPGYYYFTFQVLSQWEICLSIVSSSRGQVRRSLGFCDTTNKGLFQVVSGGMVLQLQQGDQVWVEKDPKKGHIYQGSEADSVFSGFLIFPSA
T3 sequence (P02746 28-253, chain 2 of 3): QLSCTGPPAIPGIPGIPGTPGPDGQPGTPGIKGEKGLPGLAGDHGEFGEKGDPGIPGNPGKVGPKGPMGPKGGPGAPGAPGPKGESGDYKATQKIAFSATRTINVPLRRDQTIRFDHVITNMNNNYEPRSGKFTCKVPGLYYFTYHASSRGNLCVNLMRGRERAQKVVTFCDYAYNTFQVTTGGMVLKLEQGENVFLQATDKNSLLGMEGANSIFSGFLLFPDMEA
T3 sequence (P02747 29-245, chain 3 of 3): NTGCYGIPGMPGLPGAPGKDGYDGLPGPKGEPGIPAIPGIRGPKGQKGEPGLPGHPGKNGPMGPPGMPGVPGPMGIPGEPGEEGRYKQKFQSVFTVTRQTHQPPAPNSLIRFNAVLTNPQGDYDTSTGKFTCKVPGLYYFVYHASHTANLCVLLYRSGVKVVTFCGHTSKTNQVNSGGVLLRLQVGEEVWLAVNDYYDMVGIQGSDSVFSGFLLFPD

[3] = molecular target: T4, C1q mutant LysA59Ala/LysB61Ala/LysC58Ala (UniProt P02745 23-245; P02746 28-253; P02747 29-245, LysA59Ala | LysB61Ala | LysC58Ala); test: SPR; T200; serum C1q (14,000 RU), rC1q WT (11,000 RU) or rC1qABC (12,300 RU) immobilised on CM5; clusters II and IV injected in 50 mM Tris, 150 mM NaCl, 2 mM CaCl2, 0.05% P20, pH 7.4, 180 s at 30 µl/min; KD by steady state analysis
T4 construct: complement C1q, A chain, recombinant; complement C1q, B chain, recombinant; complement C1q, C chain, recombinant; also called rC1qABC; rC1q ABC; source: produced and purified as described in Bally et al. (16); copies: 6 + 6 + 6
T4 sequence (P02745 other isoform, or with tags, fused parts or gaps with the stated changes, chain 1 of 3): as the sequence (P02745 23-245, chain 1 of 3) above, with K59A counted along it
T4 sequence (P02746 other isoform, or with tags, fused parts or gaps with the stated changes, chain 2 of 3): as the sequence (P02746 28-253, chain 2 of 3) above, with K61A counted along it
T4 sequence (P02747 other isoform, or with tags, fused parts or gaps with the stated changes, chain 3 of 3): as the sequence (P02747 29-245, chain 3 of 3) above, with K58A counted along it

[4] = molecular target: T3, C1q purified from human serum; test: as above
[5] = molecular target: T5, Recombinant C1q (wild type) (UniProt P02745 23-245; P02746 28-253; P02747 29-245); test: as above
T5 construct: complement C1q, A chain, recombinant; complement C1q, B chain, recombinant; complement C1q, C chain, recombinant; none of these is told here; also called rC1q WT; wild-type C1q; source: produced and purified as described in Bally et al. (16); copies: 6 + 6 + 6
T5 sequence (P02745 23-245, chain 1 of 3): as the sequence (P02745 23-245, chain 1 of 3) above
T5 sequence (P02746 28-253, chain 2 of 3): as the sequence (P02746 28-253, chain 2 of 3) above
T5 sequence (P02747 29-245, chain 3 of 3): as the sequence (P02747 29-245, chain 3 of 3) above

Row | Binder | Kd (Soluble LRP1 cluster III) [nM] | koff (Soluble LRP1 cluster III) [s⁻¹] | kon (Soluble LRP1 cluster III) [M⁻¹ s⁻¹] | Kd (Soluble LRP1 cluster IV) [nM] | koff (Soluble LRP1 cluster IV) [s⁻¹] | kon (Soluble LRP1 cluster IV) [M⁻¹ s⁻¹] | Kd (Soluble LRP1 cluster II) [nM] | koff (Soluble LRP1 cluster II) [s⁻¹] | kon (Soluble LRP1 cluster II) [M⁻¹ s⁻¹] | Kd [1] [nM] | koff [1] [s⁻¹] | kon [1] [M⁻¹ s⁻¹] | Kd [2] [nM] | Kd [3] [nM] | Kd [4] [nM] | Kd [5] [nM]
1 | B1 | 1.06 | 0.00308 | 2.95e+06 | 1.28 | 0.00147 | 1.18e+06 | 1.09 | 0.00196 | 2.2e+06 | 0.76 | 0.00105 | 1.41e+06 | – | – | – | –
2 | B2 | – | – | – | – | – | – | – | – | – | – | – | – | 3.49 | 514 | 275 | 318
3 | B3 | – | – | – | – | – | – | – | – | – | – | – | – | 0.69 | 222 | 158 | 183
